Measurements: patent publication US6034212, “SH3 kinase domain associated protein, a signalling domain therein, nucleic acids encoding the protein and the domain, and diagnostic and therapeutic uses thereof” (The Rockefeller University, dated 2000)

What was measured:
[1] = target: T1, GST-SH3-Yes fusion protein (Gallus gallus (Chicken), UniProt P09324, 35S-methionine labeled when used as probe); test: competition of labeled GST-YES-SH3 binding to blotted TrpE-YAP65 by the scrambled peptide
Method: (§1) FIG. 5. Binding between YAP65 and Yes in vitro. (A) TrpE-YAP65 fusion protein (2,4,5,6,7) or TrpE alone (1,3) were probed on Western blots with ^35S-methionine labeled GST-Yes-SH3 alone (2) or with radioactive GST-Yes-SH3 supplemented with 10 µM of cold GST-Yes-SH3 (4); Lane 5 is as in lane 2 but the incubation was in the presence of SPLAP peptide (200 µM); lanes 6 and 7, the binding was competed with 50 µM and 200 µM of the PLAP peptide, respectively. The arrow indicates partially purified TrpE-YAP65 fusion protein. Lower migrating protein bands represent products of proteolytic degradation. Even if an increased concentration of protease inhibitors and careful purification protocols were used, we always observed limited degradation of the TrpE-YAP65 protein. Equal amounts (8 µg) of TrpE-fusion protein or TrpE protein were loaded into each lane of the SDS-polyacrylamide gel and transferred to nitrocellulose. (B) Differential binding of ^35S-labeled TrpE-YAP65 fusion protein to various fusion proteins containing SH3 domains. Before the Western transfer, we had loaded equal amounts (1 µg) of purified proteins into each lane of the SDS gel. An SDS-polyacrylamide gel was run in parallel and stained with Coomassie Blue to confirm equal concentrations of the purified proteins. […]

GST alone = GST alone (Schistosoma japonicum (Blood fluke), UniProt P08515 = GST, 32P-labelled when used as probe in Example 5); test: Western ligand blot on TrpE-YAP65
[2] = target: T1, GST-SH3-Yes fusion protein; test: membrane binding assay, radioactively labeled TrpE-YAP65 on blotted GST fusions
Method: as §1, with “nitrocellulose.” for “nitrocellulose. (B) Differential binding of ^35S-labeled TrpE-YAP65 fusion protein to various fusion proteins containing SH3 domains. Before the Western transfer, we had loaded equal amounts (1 µg) of purified proteins into each lane of the SDS gel. An SDS-polyacrylamide gel was run in parallel and stained with Coomassie Blue to confirm equal concentrations of the purified proteins.”
To perform reciprocal binding and to estimate the relative specificity of YAP65 binding to other proteins that contain SH3 domains, we probed the purified GST fusion proteins of Nck, Crk, Src, Abl and GAP with radioactively labeled Trp-E-YAP65 protein. The same amount of protein was analyzed in a membrane binding assay; TRPE-YAP-65 bound the strongest to Nck and Yes followed by Crk, and Src. […]

| Binder | binding result [1] | binding result (GST alone) | binding result [2] |
| --- | --- | --- | --- |
| VQPAQLSIPGPVSPQPKGQSPA [SPLAP peptide] | no binding (tested: 200 µM) | – | – |
| TrpE-YAP65 fusion protein (other, 35S-labeled when used as probe) MQTQKPTLELLTCEGAYRDNPTALFHQLCGDRPATLLLESADIDSKDDLKSLLLVDSALRITALGDTVTIQALSGNGEALLALLDNALPAGVESEQSPNCRVLRFPPVSPLLDEDARLCSLSVFDAFRLLQNLLNVPKEEREAMFFGGLFSYDLVAGFEDLPQLSAENNCPDFCFYLAETLMVIDHQKKSTRIQASLFAPNEEEKQRLTARLNELRQQLTEAAPPLPVVSVPHMRCECNQSDEEFGGVVRLLQKAIRAGEIFQVVPSRRFSLPCPSPLAAYYVLKKSNPSPYMFFMQDNDFTLFGASPESSLKYDATSRQIEIPASLQLGAVSPGTLTPSGVVTGPGAPSSQHLRQSSFEIPDDVPLPPGWEMAKTPSGQRYFLNHIDQTTTWQDPRKAMLSQMNVTAPTSPPVQQNLMNSASAMNQRISQSAPVKQPPPLAPQSPQGGVMGGSSSNQQQQMRLQQLQMEKERLRLKHQELLRQELALRSQLPTMEQDGGSQNPVSSPGMSQELRTMTTNSSDPFLNSGTYHSRDESTDSGLSMSSYSVPRTPDDFLNSVDEMDTGDSISQSNIPSHQNRFPDYLEAIPGTNVDLGTLEGDGMNIEGEELMPSLQEALSSDILNDMES | – | no binding | binds |
